Measured values reported in US20240174727A1, “LONG-ACTING NATRIURETIC PEPTIDES AND USES THEREOF” (Eli Lilly and Company, priority 2022, published 2024).
Numbered stars: 1 amine (or outer) side, 2 acyl side, 3 side chain; on linkers, the order of the positions; unused ones are H or OH. Bridge positions count the residues as written; N and C are the ends. Square brackets hold non-standard residues; d marks the D form. * marks the point of attachment. C20 diacid = O=C(O)CCCCCCCCCCCCCCCCCCC(=O)*; γGlu = O=C(O)[C@H](CCC(=O)[*:2])N[*:1]; 4Pal = N[C@@H](Cc1ccncc1)C(=O)O

B1: Example 77 (peptide)
peptide: EKXRSSCFGGRIDRIGHYSGLGCPSFRHGGKSSGAPPPS
modifications: HOOC-(CH2)18-CO-(γGlu)-EKEKEKG-PEG12-EK-βAla-RSS[CFGGRIDRIGHYSGLGC]PSFRHGGKSSGAPPPS-NH2; thioacetal linkage between the bracketed Cys
B2: Example 78 (peptide)
peptide: EKXRSSCFGGRIDRIGHYSGLGCPSFRHGGKSSGAPPPS
modifications: HOOC-(CH2)18-CO-(γGlu)-EKEKEKG-PEG24-EK-βAla-RSS[CFGGRIDRIGHYSGLGC]PSFRHGGKSSGAPPPS-NH2; thioacetal linkage between the bracketed Cys
B3: Example 50 (peptide)
peptide: XEKEKEKGEKGRSSCFGGRIDRIGHYSGLGCPSFRHKGGPSSGAPPPS
modifications: HOOC-(CH2)18-CO-(γGlu)-EKEKEKGEKGRSS[CFGGRIDRIGHYSGLGC]PSFRHKGGPSSGAPPPS-NH2; disulfide linkage between the bracketed Cys
B4: Example 26 (peptide)
peptide: {C20 diacid}-[γGlu]EKEKEKGS[4Pal]RRSSCFGGRIDRIGHQSGLGCPSFRHRITAREDKQGEA-NH2
modifications: disulfide 15-31
B5: Example 97 (peptide)
peptide: SXRRSSCFGGRIDRIGHYSGLGCPSFRHGGPPSXKPPPK
modifications: HOOC-(CH2)18-CO-(γGlu)-EKEKEKG-(AEEA)6-S-4Pal-RRSS[CFGGRIDRIGHYSGLGC]PSFRHGGPPS-Aib-KPPPK-NH2; thioacetal linkage between the bracketed Cys
B6: Example 47 (peptide)
peptide: XEKEKEKGRSSCFGGKIDRIGHYSGLGCPSFRHKGPSSGAPPPS
modifications: HOOC-(CH2)18-CO-(γGlu)-EKEKEKGRSS[CFGGKIDRIGHYSGLGC]PSFRHKGPSSGAPPPS-NH2; disulfide linkage between the bracketed Cys
B7: Example 23 (peptide)
peptide: XEKEKEKGSXRRSSCFGGRIDRIGAQSGLGCPSFRXGGPSSGAPPPS
modifications: HOOC-(CH2)18-CO-(γGlu)-EKEKEKGS-4Pal-RRSS[CFGGRIDRIGAQSGLGC]PSFR-4Pal-GGPSSGAPPPS-NH2; disulfide linkage between the bracketed Cys
B8: Example 36 (peptide)
peptide: XEKEKEKGSXRRSSCFGGKIDRIGHQSGLGCPSFRHGGPSSGAPPPS
modifications: HOOC-(CH2)18-CO-(γGlu)-EKEKEKGS-4Pal-RRSS[CFGGKIDRIGHQSGLGC]PSFRHGGPSSGAPPPS-NH2; disulfide linkage between the bracketed Cys
B9: Example 35 (peptide)
peptide: XEKEKEKGSXKRSSCFGGRIDRIGHQSGLGCPSFRHGGPSSGAPPPS
modifications: HOOC-(CH2)18-CO-(γGlu)-EKEKEKGS-4Pal-KRSS[CFGGRIDRIGHQSGLGC]PSFRHGGPSSGAPPPS-NH2; disulfide linkage between the bracketed Cys
B10: Example 25 (peptide)
peptide: {C20 diacid}-[γGlu]EKEKEKGS[4Pal]RRSSCFGGRIDRIGHQSGLGCPSFRHRITAREDKQGYA-NH2
modifications: disulfide 15-31
B11: Example 24 (peptide)
peptide: {C20 diacid}-[γGlu]EKEKEKGS[4Pal]RRSSCFGGRIDRIGHQSGLGCPSFR[4Pal]-NH2
modifications: disulfide 15-31
SMILES: CC[C@H](C)[C@@H]1NC(=O)[C@H](CCCNC(=N)N)NC(=O)[C@H](CC(=O)O)NC(=O)[C@H]([C@@H](C)CC)NC(=O)[C@H](CCCNC(=N)N)NC(=O)CNC(=O)CNC(=O)[C@H](Cc2ccccc2)NC(=O)[C@@H](NC(=O)[C@H](CO)NC(=O)[C@H](CO)NC(=O)[C@H](CCCNC(=N)N)NC(=O)[C@H](CCCNC(=N)N)NC(=O)[C@H](Cc2ccncc2)NC(=O)[C@H](CO)NC(=O)CNC(=O)[C@H](CCCCN)NC(=O)[C@H](CCC(=O)O)NC(=O)[C@H](CCCCN)NC(=O)[C@H](CCC(=O)O)NC(=O)[C@H](CCCCN)NC(=O)[C@H](CCC(=O)O)NC(=O)CC[C@H](NC(=O)CCCCCCCCCCCCCCCCCCC(=O)O)C(=O)O)CSSC[C@@H](C(=O)N2CCC[C@H]2C(=O)N[C@@H](CO)C(=O)N[C@@H](Cc2ccccc2)C(=O)N[C@@H](CCCNC(=N)N)C(=O)N[C@@H](Cc2ccncc2)C(N)=O)NC(=O)CNC(=O)[C@H](CC(C)C)NC(=O)CNC(=O)[C@H](CO)NC(=O)[C@H](CCC(N)=O)NC(=O)[C@H](Cc2c[nH]cn2)NC(=O)CNC1=O

Molecular target: T1, human NPRA (human, UniProt P16066 33-1061)
T1 sequence (looked up): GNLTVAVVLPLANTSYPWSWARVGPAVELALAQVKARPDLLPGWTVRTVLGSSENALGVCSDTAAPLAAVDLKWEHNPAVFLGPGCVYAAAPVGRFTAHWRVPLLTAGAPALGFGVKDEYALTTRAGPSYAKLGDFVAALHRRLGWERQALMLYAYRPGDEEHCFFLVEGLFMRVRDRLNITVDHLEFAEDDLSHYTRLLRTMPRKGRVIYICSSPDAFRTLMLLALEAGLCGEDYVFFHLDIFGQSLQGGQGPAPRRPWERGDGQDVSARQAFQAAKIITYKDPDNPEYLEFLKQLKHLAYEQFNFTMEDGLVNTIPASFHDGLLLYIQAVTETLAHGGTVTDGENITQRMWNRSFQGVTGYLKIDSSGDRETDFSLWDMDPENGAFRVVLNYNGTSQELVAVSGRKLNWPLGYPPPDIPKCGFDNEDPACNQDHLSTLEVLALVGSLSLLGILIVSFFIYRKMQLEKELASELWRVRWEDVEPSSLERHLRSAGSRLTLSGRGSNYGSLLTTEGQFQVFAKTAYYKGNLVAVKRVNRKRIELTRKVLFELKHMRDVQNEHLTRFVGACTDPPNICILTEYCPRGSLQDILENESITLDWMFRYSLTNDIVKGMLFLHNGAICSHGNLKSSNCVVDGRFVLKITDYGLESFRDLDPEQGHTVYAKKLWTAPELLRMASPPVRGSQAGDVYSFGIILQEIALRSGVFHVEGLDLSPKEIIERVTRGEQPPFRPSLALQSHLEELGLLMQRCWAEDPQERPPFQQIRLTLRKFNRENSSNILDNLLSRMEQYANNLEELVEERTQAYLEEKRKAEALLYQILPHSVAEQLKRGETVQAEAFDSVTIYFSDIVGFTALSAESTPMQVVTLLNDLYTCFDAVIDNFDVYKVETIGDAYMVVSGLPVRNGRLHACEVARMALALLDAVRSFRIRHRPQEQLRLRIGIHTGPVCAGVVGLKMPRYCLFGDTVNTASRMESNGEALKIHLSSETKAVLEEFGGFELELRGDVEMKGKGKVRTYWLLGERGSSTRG
Experiment: cell-based or functional assay

Row | Binder | cGMP Assay (EC50, pM) w/Casein [pM] | cGMP Assay (EC50, pM) w/BSA [pM]
1 | B1 | 1270 | –
2 | B2 | – | 19700
3 | B3 | 614 | –
4 | B4 | 682 | 17800
5 | B5 | 720 | –
6 | B6 | 299 | –
7 | B7 | 3490 | –
8 | B8 | 118 | –
9 | B9 | 118 | –
10 | B10 | 436 | 12000
11 | B11 | 560 | 21000

Molecular target: T2, rat NPRA (rat, UniProt P18910 29-1057)
T2 sequence (looked up): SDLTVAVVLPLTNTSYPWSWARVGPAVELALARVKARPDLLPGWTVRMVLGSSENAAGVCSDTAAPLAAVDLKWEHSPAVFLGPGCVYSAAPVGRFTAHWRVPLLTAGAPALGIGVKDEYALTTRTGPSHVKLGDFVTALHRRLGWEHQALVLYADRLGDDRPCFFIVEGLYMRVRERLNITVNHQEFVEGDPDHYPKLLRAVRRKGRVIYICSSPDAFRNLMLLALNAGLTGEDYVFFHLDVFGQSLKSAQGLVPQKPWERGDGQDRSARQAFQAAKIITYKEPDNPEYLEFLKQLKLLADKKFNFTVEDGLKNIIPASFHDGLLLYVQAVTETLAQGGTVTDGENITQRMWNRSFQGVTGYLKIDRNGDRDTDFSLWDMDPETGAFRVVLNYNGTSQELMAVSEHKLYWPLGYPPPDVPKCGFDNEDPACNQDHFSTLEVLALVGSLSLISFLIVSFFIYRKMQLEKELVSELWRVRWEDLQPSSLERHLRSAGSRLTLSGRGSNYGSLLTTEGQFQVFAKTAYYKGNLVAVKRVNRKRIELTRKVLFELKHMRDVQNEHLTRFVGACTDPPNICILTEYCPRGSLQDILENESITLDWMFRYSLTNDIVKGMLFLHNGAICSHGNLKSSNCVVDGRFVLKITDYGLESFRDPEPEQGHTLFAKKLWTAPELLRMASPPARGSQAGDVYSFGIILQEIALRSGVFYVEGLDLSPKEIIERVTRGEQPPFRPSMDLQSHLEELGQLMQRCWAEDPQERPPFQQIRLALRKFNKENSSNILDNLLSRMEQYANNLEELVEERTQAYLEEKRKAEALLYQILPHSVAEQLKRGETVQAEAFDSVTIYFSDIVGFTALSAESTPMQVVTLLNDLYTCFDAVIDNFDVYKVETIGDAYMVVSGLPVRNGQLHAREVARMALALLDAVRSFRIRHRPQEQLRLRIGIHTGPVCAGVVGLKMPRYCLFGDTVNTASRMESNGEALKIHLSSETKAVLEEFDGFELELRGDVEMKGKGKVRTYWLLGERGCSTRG
Experiment: cell-based or functional assay

Row | Binder | cGMP Assay (EC50, pM) w/BSA [pM] | cGMP Assay (EC50, pM) w/Casein [pM]
12 | B4 | 119000 | 803
13 | B10 | 57300 | 654
14 | B11 | 66100 | 703
